Key:
native rVWF 133P1 = target: T1, native rVWF 133P1 (human, UniProt P04275 764-2813); test: SPR (Biacore 3000): native rVWF 133P1 immobilized on CM5 chip, FVIII sample in flow, 1:1 Langmuir model
T1 construct: mature; Starting material for PEGylation; multimers of the mature monomer (about 260 kDa on reducing SDS-PAGE); also called unmodified rVWF

[1] = target: activated factor IX (FIXa); test: cell-based or functional assay

Kd (native rVWF 133P1): 0.55 nM
lag phase (min), FIXa-cofactor activity after thrombin activation [1]: 1.13 min
lag phase (min), FIXa-cofactor activity without thrombin activation [1]: 1.8 min
maximum FXa (nM), FIXa-cofactor activity after thrombin activation [1]: 33.7 nM
maximum FXa (nM), FIXa-cofactor activity without thrombin activation [1]: 39.6 nM
maximum rate (nM FXa/min), FIXa-cofactor activity after thrombin activation [1]: 9.79 nM FXa/min
maximum rate (nM FXa/min), FIXa-cofactor activity without thrombin activation [1]: 8.8 nM FXa/min
t1/2 of maximum (min), FIXa-cofactor activity after thrombin activation [1]: 2.85 min
t1/2 of maximum (min), FIXa-cofactor activity without thrombin activation [1]: 4 min
B1: FVIII control (mock preparation, not PEGylated) (other)
chain: ATRRYYLGAVELSWDYMQSDLGELPVDARFPPRVPKSFPFNTSVVYKKTLFVEFTDHLFNIAKPRPPWMGLLGPTIQAEVYDTVVITLKNMASHPVSLHAVGVSYWKASEGAEYDDQTSQREKEDDKVFPGGSHTYVWQVLKENGPMASDPLCLTYSYLSHVDLVKDLNSGLIGALLVCREGSLAKEKTQTLHKFILLFAVFDEGKSWHSETKNSLMQDRDAASARAWPKMHTVNGYVNRSLPGLIGCHRKSVYWHVIGMGTTPEVHSIFLEGHTFLVRNHRQASLEISPITFLTAQTLLMDLGQFLLFCHISSHQHDGMEAYVKVDSCPEEPQLRMKNNEEAEDYDDDLTDSEMDVVRFDDDNSPSFIQIRSVAKKHPKTWVHYIAAEEEDWDYAPLVLAPDDRSYKSQYLNNGPQRIGRKYKKVRFMAYTDETFKTREAIQHESGILGPLLYGEVGDTLLIIFKNQASRPYNIYPHGITDVRPLYSRRLPKGVKHLKDFPILPGEIFKYKWTVTVEDGPTKSDPRCLTRYYSSFVNMERDLASGLIGPLLICYKESVDQRGNQIMSDKRNVILFSVFDENRSWYLTENIQRFLPNPAGVQLEDPEFQASNIMHSINGYVFDSLQLSVCLHEVAYWYILSIGAQTDFLSVFFSGYTFKHKMVYEDTLTLFPFSGETVFMSMENPGLWILGCHNSDFRNRGMTALLKVSSCDKNTGDYYEDSYEDISAYLLSKNNAIEPRSFSQNSRHPSQNPPVLKRHQREITRTTLQSDQEEIDYDDTISVEMKKEDFDIYDEDENQSPRSFQKKTRHYFIAAVERLWDYGMSSSPHVLRNRAQSGSVPQFKKVVFQEFTDGSFTQPLYRGELNEHLGLLGPYIRAEVEDNIMVTFRNQASRPYSFYSSLISYEEDQRQGAEPRKNFVKPNETKTYFWKVQHHMAPTKDEFDCKAWAYFSDVDLEKDVHSGLIGPLLVCHTNTLNPAHGRQVTVQEFALFFTIFDETKSWYFTENMERNCRAPCNIQMEDPTFKENYRFHAINGYIMDTLPGLVMAQDQRIRWYLLSMGSNENIHSIHFSGHVFTVRKKEEYKMALYNLYPGVFETVEMLPSKAGIWRVECLIGEHLHAGMSTLFLVYSNKCQTPLGMASGHIRDFQITASGQYGQWAPKLARLHYSGSINAWSTKEPFSWIKVDLLAPMIIHGIKTQGARQKFSSLYISQFIIMYSLDGKKWQTYRGNSTGTLMVFFGNVDSSGIKHNIFNPPIIARYIRLHPTHYSIRSTLRMELMGCDLNSCSMPLGMESKAISDAQITASSYFTNMFATWSPSKARLHLQGRSNAWRPQVNNPKEWLQVDFQKTMKVTGVTTQGVKSLLTSMYVKEFLISSSQDGHQWTLFFQNGKVKVFQGNQDSFTPVVNSLDPPLLTRYLRIHPQSWVHQIALRMEVLGCEAQDLY

From patent US20080234193A1 (published 2008)
